The numbers were not newly measured in PMC10650157, which cites them from elsewhere.

For series [1], the target named is apo-lactoferrin (Homo sapiens) (UniProt P02788).
The target of series [2] is apo-transferrin (Homo sapiens) (UniProt P02787).
Chain of UniProt P02787 (P02787 20-698): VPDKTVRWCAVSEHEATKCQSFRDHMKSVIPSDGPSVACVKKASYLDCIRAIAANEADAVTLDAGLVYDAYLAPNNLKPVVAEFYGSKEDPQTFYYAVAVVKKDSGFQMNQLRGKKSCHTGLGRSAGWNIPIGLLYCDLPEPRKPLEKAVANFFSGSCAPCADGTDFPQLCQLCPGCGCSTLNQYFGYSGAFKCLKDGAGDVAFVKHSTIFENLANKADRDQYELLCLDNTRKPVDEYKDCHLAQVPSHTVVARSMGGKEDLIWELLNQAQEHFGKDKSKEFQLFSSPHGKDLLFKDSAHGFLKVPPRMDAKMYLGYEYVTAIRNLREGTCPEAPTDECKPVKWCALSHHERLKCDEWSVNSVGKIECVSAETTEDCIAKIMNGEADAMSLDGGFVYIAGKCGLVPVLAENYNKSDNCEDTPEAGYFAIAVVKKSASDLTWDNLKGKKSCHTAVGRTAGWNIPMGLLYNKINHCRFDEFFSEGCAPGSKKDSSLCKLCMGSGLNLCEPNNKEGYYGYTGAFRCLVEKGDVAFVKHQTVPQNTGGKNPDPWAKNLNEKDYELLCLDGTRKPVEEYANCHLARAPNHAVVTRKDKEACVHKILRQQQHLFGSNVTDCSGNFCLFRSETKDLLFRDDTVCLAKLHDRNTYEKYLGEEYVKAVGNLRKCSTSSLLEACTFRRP

Chain of UniProt P02788 (P02788 20-710): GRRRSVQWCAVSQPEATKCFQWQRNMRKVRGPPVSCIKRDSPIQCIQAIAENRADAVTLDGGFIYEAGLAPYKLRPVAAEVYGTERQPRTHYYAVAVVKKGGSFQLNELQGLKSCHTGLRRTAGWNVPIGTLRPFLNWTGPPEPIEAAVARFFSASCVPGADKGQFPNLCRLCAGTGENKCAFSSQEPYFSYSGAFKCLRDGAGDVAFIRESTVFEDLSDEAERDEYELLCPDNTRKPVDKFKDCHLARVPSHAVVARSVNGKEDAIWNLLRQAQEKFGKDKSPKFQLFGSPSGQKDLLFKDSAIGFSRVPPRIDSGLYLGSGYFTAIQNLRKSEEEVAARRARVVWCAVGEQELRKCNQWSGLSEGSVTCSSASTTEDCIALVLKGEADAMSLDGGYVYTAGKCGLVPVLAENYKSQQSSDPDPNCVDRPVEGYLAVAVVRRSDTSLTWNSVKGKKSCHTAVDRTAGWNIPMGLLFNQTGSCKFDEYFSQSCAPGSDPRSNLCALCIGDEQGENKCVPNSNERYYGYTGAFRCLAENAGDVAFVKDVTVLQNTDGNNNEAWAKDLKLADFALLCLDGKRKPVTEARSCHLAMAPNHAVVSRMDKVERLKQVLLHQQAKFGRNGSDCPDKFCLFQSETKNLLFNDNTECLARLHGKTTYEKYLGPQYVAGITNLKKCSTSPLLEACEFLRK

Consider Ceruloplasmin (from UniProt P00450), for which the equilibrium dissociation constant (Kd) (usually the free concentration of one partner at which half of the binding sites on the other are occupied at equilibrium, for simple one-to-one binding) in series [1] was 7.4 µM; in series [2], 51.3 µM.
